From article PMC12636710

How the values were obtained:
[1] = molecular target: human apolipoprotein E, apoE4 isoform (ε4 allele) (human) (UniProt P02649); assay: co-IP
[2] = molecular target: prion protein (PrP) (mouse (endogenous in brain of APOE-TR mice)) (UniProt P04925); assay: velocity sedimentation in a sucrose gradient

Chain of prion protein (PrP) (P04925 23-230): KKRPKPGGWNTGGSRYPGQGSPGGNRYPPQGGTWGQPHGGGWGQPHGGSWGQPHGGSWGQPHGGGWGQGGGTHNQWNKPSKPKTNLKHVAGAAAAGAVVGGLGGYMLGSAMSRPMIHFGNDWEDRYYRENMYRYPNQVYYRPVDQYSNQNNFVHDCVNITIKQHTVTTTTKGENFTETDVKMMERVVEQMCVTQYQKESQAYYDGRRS
Chain of human apolipoprotein E, apoE4 isoform (ε4 allele) (human) (P02649 19-317): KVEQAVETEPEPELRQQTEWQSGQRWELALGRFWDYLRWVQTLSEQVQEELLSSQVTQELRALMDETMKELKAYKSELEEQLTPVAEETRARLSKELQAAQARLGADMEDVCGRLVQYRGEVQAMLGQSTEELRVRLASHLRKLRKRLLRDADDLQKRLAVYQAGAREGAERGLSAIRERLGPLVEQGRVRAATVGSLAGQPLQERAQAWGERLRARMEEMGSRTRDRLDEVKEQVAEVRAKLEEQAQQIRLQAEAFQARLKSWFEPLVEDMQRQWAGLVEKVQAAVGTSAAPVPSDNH
Chain of prion protein (PrP), P04925 23-230 (natural protein; other documents disagree on this pair) (P04925 23-230): as the sequence (P04925 23-230) above

“prion protein (PrP) (from UniProt P04925 23-230) (natural protein)” gave a fold PrP/apoE OD ratio in the immunoprecipitate against ε2/ε2 22L mice [1] of 2.8 fold and a fold PrP/apoE OD ratio in the immunoprecipitate against ε3/ε3 22L mice [1] of 1.7 fold.
In the case of “prion protein (PrP), P04925 23-230 (natural protein; other documents disagree on this pair)”, the stoichiometry N [2] is reported as > 10.
